This is an account of results in patent publication US20220218790A1 (UNIVERSITY OF SHEFFIELD, published 2022).

For the assay, the target named is T1, PTH receptor of the PTH responsive cell line UMR-106 (rat osteoblastic like cell line) (rat, UniProt P25961 27-591).
T1 sequence (looked up): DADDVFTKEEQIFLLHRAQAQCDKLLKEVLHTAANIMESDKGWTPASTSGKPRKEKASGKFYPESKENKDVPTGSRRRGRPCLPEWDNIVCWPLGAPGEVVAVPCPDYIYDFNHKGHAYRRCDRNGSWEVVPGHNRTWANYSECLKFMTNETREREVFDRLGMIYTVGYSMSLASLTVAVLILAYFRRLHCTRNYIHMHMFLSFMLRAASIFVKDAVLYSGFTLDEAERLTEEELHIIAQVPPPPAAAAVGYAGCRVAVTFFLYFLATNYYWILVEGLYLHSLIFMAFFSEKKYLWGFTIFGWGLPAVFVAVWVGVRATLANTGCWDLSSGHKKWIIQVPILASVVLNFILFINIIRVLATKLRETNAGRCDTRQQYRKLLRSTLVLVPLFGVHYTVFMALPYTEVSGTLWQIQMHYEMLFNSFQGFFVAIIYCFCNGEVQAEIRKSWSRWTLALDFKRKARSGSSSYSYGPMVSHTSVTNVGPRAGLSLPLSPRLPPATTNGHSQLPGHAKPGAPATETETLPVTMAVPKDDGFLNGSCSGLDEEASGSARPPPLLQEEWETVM
Description: cell-based or functional assay.

B1: 14A2c = PTHss-pp-PTH (1-34)-(g4s)4-PTHrExt-(g4s)4-GHbp (other)
chain: SVSEIQLMHNLGKHLNSMERVEWLRKKLQDVHNFGGGGSGGGGSGGGGSGGGGSDDVMTKEEQIFLLHRAQAQCEKRLKEVLQRPASIMESDKGWTSASTSGKPRKDKASGKLYPESEEDKEAPTGSRYRGRPCLPEWDHILCWPLGAPGEVVAVPCPDYIYDFNHKGHAYRRCDRNGSWELVPGHNRTWANYSECVKFLTNETREREVFDRLGGGGSGGGGSGGGGSGGGGSFSGSEATAAILSRAPWSLQSVNPGLKTNSSKEPKFTKCRSPERETFSCHWTDEVHHGTKNLGPIQLFYTRRNTQEWTQEWKECPDYVSAGENSCYFNSSFTSIAIPYCIKLTSNGGTVDEKCFSVDEIVQPDPPIALNWTLLNVSLTGIHADIQVRWEAPRNADIQKGWMVLEYELQYKEVNETKWKMMDPILTTSVPVYSLKVDKEYEVRVRSKQRNSGNYGEFSEVLYVTLPQMSQ
Consider B1, for which the “Dual Luciferase Reporter Assay, fold increase of 14A2c over 14A3b at 100 nM” value was roughly 1.3 fold; the “Dual Luciferase Reporter Assay, fold increase of 14A2c over 14A3b at 500 nM” value is roughly 1.6 fold; the “EC50, Dual Luciferase Reporter Assay, UMR-106 cells” value (from here on “EC50 … UMR-106 cells”) was 579 nM; the “fold increase in cAMP levels over 14A3b, UMR-106 cells, 500 nM” value stood at 11 fold.

B2: 14A3b = GHss-PTH (1-34)-(g4s)4-PTHrExt-(g4s)4-GHbp (other)
chain: B1 chain
B2: the “EC50 … UMR-106 cells” value worked out at 896 nM.

B3: 14A7 = PTHss-pp-PTH(1-34)-(g4s)4-GHbp (other)
chain: SVSEIQLMHNLGKHLNSMERVEWLRKKLQDVHNFGGGGSGGGGSGGGGSGGGGSFSGSEATAAILSRAPWSLQSVNPGLKTNSSKEPKFTKCRSPERETFSCHWTDEVHHGTKNLGPIQLFYTRRNTQEWTQEWKECPDYVSAGENSCYFNSSFTSIAIPYCIKLTSNGGTVDEKCFSVDEIVQPDPPIALNWTLLNVSLTGIHADIQVRWEAPRNADIQKGWMVLEYELQYKEVNETKWKMMDPILTTSVPVYSLKVDKEYEVRVRSKQRNSGNYGEFSEVLYVTLPQMSQ
In the case of B3, the “EC50 … UMR-106 cells” value was 153 nM and the “fold by which PTH is more potent than this fusion (EC50, Dual Luciferase Reporter Assay)” value is 4.7 fold.
